Reference: PMC6032367, “A peptide‐display protein scaffold to facilitate single molecule force studies of aggregation‐prone peptides” (Protein Science : A Publication of the Protein Society, 2018)
Each block holds one molecule with its values, some of them ahead of it.

Columns and labels:
[1] = molecular target: pL αSyn71–82 (protein L W47Y I60F N14C scaffold with αSyn residues 71–82 inserted in the extended β3‐β4 loop); assay: dynamic force spectroscopy (AFM); pL αSyn71–82 on AFM tip and surface; retraction speeds 200 to 5000 nm s^-1; Bell‐Evans fit, dissociation rate constant in the absence of force; 20 mM HEPES pH 7.5, room temperature
[2] = molecular target: pL αSyn71–82 (protein L W47Y I60F N14C scaffold with αSyn residues 71–82 inserted in the extended β3‐β4 loop); assay: native MS; ESI–MS of 100 μM pL constructs in 100 mM ammonium acetate pH 6.8, equal volumes mixed for heterodimers; after quiescent incubation for 4 h at 25°C
[3] = molecular target: pL αSyn71–82 (protein L W47Y I60F N14C scaffold with αSyn residues 71–82 inserted in the extended β3‐β4 loop); assay: single molecule force spectroscopy (AFM); pL constructs coupled through Cys14 to maleimide‐PEG on both the AFM tip and the surface; retraction 1 μm s^-1 (1000 nm s^-1), approach 2 µm s^-1; 20 mM HEPES pH 7.5, room temperature; triplicate
[4] = molecular target: pL γSyn71–82 (protein L W47Y I60F N14C scaffold with γSyn residues 71–82 inserted in the extended β3‐β4 loop); assay: native MS; ESI–MS of 100 μM pL constructs in 100 mM ammonium acetate pH 6.8, equal volumes mixed for heterodimers; after quiescent incubation for 4 h at 25°C
[5] = molecular target: the molecule itself; assay: native MS; ESI–IMS–MS of synthetic peptides alone and in a 1:1 mixture; 100 μM final in 100 mM ammonium acetate pH 6.8
[6] = molecular target: T1, αSyn71–82 synthetic peptide; assay: cell-based or functional assay
T1 peptide: Ac-VTGVTAVAQKTV-NH2

[7] = molecular target: T2, αSyn71–82 synthetic peptide; assay: native MS; ESI–IMS–MS of synthetic peptides alone and in a 1:1 mixture; 100 μM final in 100 mM ammonium acetate pH 6.8; settings: remark: other sources report otherwise
T2 chain: VTGVTAVAQKTV

Molecule: pL αSyn71–82 (protein L W47Y I60F N14C scaffold with αSyn residues 71–82 inserted in the extended β3‐β4 loop)
koff [1]: 0.18 s⁻¹
lifetime [1]: 6 s
stoichiometry N [2]: < 3
hit rate [3]: 4%
rupture force (F R) [3]: 57 pN

Molecule: pL γSyn71–82 (protein L W47Y I60F N14C scaffold with γSyn residues 71–82 inserted in the extended β3‐β4 loop)
stoichiometry N [4]: 2
hit rate (frequency of detection) [3]: 3.2%
rupture force (F R) [3]: 53 pN

increase in lag‐time of ThT fluorescence of the 1:1 peptide mixture compared with αSyn71–82 alone [6]: 2.5 fold
increase in lag‐time of ThT fluorescence of the 1:1 peptide mixture compared with γSyn71–82 alone [6]: 5.7 fold
B1: γSyn71–82 synthetic peptide (peptide)
peptide: Ac-VSSVNTVATKTV-NH2
notes: γ‐synuclein, central NAC region, residues 71–82; also called central NAC region of γSyn; source: bought: Genscript, synthetic peptide, >99% purity
stoichiometry N [5]: ≤ 14

stoichiometry N [7]: < 14
B2: αSyn71–82 synthetic peptide (peptide)
peptide: Ac-VTGVTAVAQKTV-NH2
